Experimental data: IntAct's records for PubMed 9853758

B1: Phosphate system positive regulatory protein PHO4 (Saccharomyces cerevisiae), P07270 (parent)
chain: MGRTTSEGIHGFVDDLEPKSSILDKVGDFITVNTKRHDGREDFNEQNDELNSQENHNSSENGNENENEQDSLALDDLDRAFELVEGMDMDWMMPSHAHHSPATTATIKPRLLYSPLIHTQSAVPVTISPNLVATATSTTSANKVTKNKSNSSPYLNKRRGKPGPDSATSLFELPDSVIPTPKPKPKPKQYPKVILPSNSTRRVSPVTAKTSSSAEGVVVASESPVIAPHGSSHSRSLSKRRSSGALVDDDKRESHKHAEQARRNRLAVALHELASLIPAEWKQQNVSAAPSKATTVEAACRYIRHLQQNVST
partner: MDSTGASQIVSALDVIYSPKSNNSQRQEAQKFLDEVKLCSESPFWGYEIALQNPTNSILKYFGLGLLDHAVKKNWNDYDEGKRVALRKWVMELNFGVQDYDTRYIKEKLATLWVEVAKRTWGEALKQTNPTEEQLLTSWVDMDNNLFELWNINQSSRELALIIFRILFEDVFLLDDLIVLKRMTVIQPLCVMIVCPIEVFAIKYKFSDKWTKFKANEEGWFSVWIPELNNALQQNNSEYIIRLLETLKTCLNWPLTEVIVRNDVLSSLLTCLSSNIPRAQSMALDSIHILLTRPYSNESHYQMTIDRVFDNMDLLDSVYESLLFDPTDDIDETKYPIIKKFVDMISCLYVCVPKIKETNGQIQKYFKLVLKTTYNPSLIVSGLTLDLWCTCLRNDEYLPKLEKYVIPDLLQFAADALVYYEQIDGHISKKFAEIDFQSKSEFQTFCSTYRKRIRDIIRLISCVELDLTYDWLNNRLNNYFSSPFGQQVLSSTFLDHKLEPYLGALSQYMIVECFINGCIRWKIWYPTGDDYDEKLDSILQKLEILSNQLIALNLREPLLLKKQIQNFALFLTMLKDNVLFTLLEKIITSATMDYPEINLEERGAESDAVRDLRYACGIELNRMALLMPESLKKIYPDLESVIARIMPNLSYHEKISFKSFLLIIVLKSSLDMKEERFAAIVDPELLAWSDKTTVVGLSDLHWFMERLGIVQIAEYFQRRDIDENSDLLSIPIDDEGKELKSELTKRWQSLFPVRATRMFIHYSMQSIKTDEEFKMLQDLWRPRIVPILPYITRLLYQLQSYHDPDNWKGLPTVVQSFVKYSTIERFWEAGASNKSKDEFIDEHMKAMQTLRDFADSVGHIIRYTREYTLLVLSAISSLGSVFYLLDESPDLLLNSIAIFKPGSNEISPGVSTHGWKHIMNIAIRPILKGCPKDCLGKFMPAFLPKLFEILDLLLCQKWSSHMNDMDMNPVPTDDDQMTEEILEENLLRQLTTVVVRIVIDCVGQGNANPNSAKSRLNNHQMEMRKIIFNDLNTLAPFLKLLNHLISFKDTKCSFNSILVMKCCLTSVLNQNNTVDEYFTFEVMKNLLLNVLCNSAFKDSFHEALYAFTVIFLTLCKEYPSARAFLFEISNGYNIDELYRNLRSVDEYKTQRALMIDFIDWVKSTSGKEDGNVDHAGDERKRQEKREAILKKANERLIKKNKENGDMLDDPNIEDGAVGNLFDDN

Variants of: B1
Details: with msn5_yeast MSN5, P52918

Variant | effect of a mutation on the interaction
MGRTTSEGIHGFVDDLEPKSSILDKVGDFITVNTKRHDGREDFNEQNDELNSQENHNSSENGNENENEQDSLALDDLDRAFELVEGMDMDWMMPSHAHHAPATTATIKPRLLYAPLIHTQSAVPVTIAPNLVATATSTTSANKVTKNKSNSAPYLNKRRGKPGPDSATSLFELPDSVIPTPKPKPKPKQYPKVILPSNSTRRVSPVTAKTSSSAEGVVVASEAPVIAPHGSSHSRSLSKRRSSGALVDDDKRESHKHAEQARRNRLAVALHELASLIPAEWKQQNVSAAPSKATTVEAACRYIRHLQQNVST [S100A;S114A;S128A;S152A;S223A] | disrupting interaction
